{"source": "paper PMC4756693", "about": "“Structural analysis of disease-related TDP-43 D169G mutation: linking enhanced stability and caspase cleavage efficiency to protein accumulation”", "target": "TDP-43 RRM1 (human, UniProt Q13148 101-191)", "sequence (Q13148 101-191)": "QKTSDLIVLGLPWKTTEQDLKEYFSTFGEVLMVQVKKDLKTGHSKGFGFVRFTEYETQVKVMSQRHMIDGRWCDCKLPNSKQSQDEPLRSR", "assay": "X-ray crystallography; crystals at pH 5.5, PEG 3350, ammonium acetate; Co-crystallization, protein:DNA 1:1.2; protein in 50 mM HEPES pH 7.5, 100 mM NaCl, 10 mM bME; hanging drop at room temperature (stated for RRM1/DNA). (TG)15 Kd", "details": "protein: recombinant; tags: N-terminal His; single strand; 8 and 9 nt modelled in the two RRM1 complexes", "data": [{"binder": "GTTGAGCGTT (ssDNA, none)", "note": "[10-nt ssDNA]", "values": [{"measurement": "binding result", "result": "binds"}]}]}
